Here are results for 4 molecules from publication PMC10397247.

One assay deals with T1, 4H2837-AA.
T1 chain: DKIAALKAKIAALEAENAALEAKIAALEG
Put plainly: two-hybrid library CCmax.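 Further: natural log of median RNA to DNA barcode read ratio; higher means stronger binding.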 The conditions noted are these: mean of both orientations.

Another assay addresses T2, 4H2617-AA.
T2 chain: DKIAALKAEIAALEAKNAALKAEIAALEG
As to the kind of experiment: two-hybrid library CCmax.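 Further: natural log of median RNA to DNA barcode read ratio; higher means stronger binding.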 The conditions noted are these: mean of both orientations.

The target in another assay is T3, 4H566-AA.
T3 chain: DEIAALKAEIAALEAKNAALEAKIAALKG
As to the kind of experiment: two-hybrid library CCmax.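 Further: natural log of median RNA to DNA barcode read ratio; higher means stronger binding.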 As to conditions: mean of both orientations.

A further assay addresses T4, 4H881-AA.
T4 chain: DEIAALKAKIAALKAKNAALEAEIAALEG
As to the kind of experiment: two-hybrid library CCmax.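 Further: natural log of median RNA to DNA barcode read ratio; higher means stronger binding.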 As to conditions: mean of both orientations.

Another assay concerns the target T5, 4H678-AA.
T5 chain: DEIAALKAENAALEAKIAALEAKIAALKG
As to the kind of experiment: two-hybrid library CCmax. The conditions noted are these: mean of both orientations.

The next assay deals with T6, 4H3606-AA.
T6 chain: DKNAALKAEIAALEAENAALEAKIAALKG
Put plainly: two-hybrid library CCmax. As to conditions: mean of both orientations.

Another assay concerns the target T7, 4H2729-AA.
T7 chain: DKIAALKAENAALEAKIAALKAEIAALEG
As to the kind of experiment: two-hybrid library CCmax. As to conditions: mean of both orientations.

A further assay has as its target T8, 4H3921-AA.
T8 chain: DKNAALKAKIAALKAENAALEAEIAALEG
Put plainly: two-hybrid library CCmax. As to conditions: mean of both orientations.

The target in the next assay is T9, 4H2754-AA.
T9 chain: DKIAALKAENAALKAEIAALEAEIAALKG
As to the kind of experiment: two-hybrid library CCmax. The conditions noted are these: mean of both orientations.

The target of a further assay is T10, 4H717-AA.
T10 chain: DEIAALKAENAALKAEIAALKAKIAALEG
Put plainly: two-hybrid library CCmax. As to conditions: mean of both orientations.

The target of a further assay is T11, 4H429-AA.
T11 chain: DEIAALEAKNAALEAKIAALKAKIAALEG
Put plainly: two-hybrid library CCmax. As to conditions: mean of both orientations.

The target in the next assay is T12, 4H3627-AA.
T12 chain: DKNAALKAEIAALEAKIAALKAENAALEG
As to the kind of experiment: two-hybrid library CCmax. The conditions noted are these: mean of both orientations.

The next assay has as its target T13, 4H317-AA.
T13 chain: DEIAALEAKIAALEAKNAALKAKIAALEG
As to the kind of experiment: two-hybrid library CCmax. As to conditions: mean of both orientations.

In another assay the target is T14, 4H48-AA.
T14 chain: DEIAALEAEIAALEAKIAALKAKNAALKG
Put plainly: two-hybrid library CCmax. As to conditions: mean of both orientations.

Another assay deals with T15, 4H2944-AA.
T15 chain: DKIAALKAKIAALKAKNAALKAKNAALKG
Put plainly: two-hybrid library CCmax. The conditions noted are these: mean of both orientations.

A further assay deals with T16, 4H993-AA.
T16 chain: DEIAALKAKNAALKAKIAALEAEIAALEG
Put plainly: two-hybrid library CCmax. As to conditions: mean of both orientations.

The next assay addresses T17, 4H3655-AA.
T17 chain: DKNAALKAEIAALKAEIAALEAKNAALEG
Put plainly: two-hybrid library CCmax. The conditions noted are these: mean of both orientations.

Another assay addresses T18, 4H2883-AA.
T18 chain: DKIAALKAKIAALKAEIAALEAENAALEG
As to the kind of experiment: two-hybrid library CCmax. As to conditions: mean of both orientations.

Another assay concerns the target T19, 4H2949-AA.
T19 chain: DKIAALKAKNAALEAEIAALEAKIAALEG
As to the kind of experiment: two-hybrid library CCmax. The conditions noted are these: mean of both orientations.

Another assay deals with T20, 4H2642-AA.
T20 chain: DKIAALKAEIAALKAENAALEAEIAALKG
Put plainly: two-hybrid library CCmax. As to conditions: mean of both orientations.

The target in the next assay is T21, 4H3844-AA.
T21 chain: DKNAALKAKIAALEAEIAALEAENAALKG
As to the kind of experiment: two-hybrid library CCmax. As to conditions: mean of both orientations.

The target of a further assay is T22, 4H2505-AA.
T22 chain: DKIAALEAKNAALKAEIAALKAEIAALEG
As to the kind of experiment: two-hybrid library CCmax. As to conditions: mean of both orientations.

The next assay has as its target T23, 4H3427-AA.
T23 chain: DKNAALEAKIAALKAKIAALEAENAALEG
As to the kind of experiment: two-hybrid library CCmax. The conditions noted are these: mean of both orientations.

A further assay concerns the target T24, 4H2466-AA.
T24 chain: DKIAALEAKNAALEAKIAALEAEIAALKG
Put plainly: two-hybrid library CCmax. The conditions noted are these: mean of both orientations.

In another assay the target is T25, 4H794-AA.
T25 chain: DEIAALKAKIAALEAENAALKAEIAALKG
As to the kind of experiment: two-hybrid library CCmax. The conditions noted are these: mean of both orientations.

Another assay deals with T26, 4H605-AA.
T26 chain: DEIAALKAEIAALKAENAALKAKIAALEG
Put plainly: two-hybrid library CCmax. As to conditions: mean of both orientations.

For a further assay, the target named is T27, 4H454-AA.
T27 chain: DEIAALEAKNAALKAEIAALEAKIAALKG
Put plainly: two-hybrid library CCmax. The conditions noted are these: mean of both orientations.

Another assay deals with T28, 4H335-AA.
T28 chain: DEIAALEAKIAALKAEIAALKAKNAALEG
As to the kind of experiment: two-hybrid library CCmax. As to conditions: mean of both orientations.

In the next assay the target is T29, 4H2575-AA.
T29 chain: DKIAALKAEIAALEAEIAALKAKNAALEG
Put plainly: two-hybrid library CCmax. As to conditions: mean of both orientations.

The target of another assay is T30, 4H342-AA.
T30 chain: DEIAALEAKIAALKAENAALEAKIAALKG
As to the kind of experiment: two-hybrid library CCmax. The conditions noted are these: mean of both orientations.

The target in the next assay is T31, 4H906-AA.
T31 chain: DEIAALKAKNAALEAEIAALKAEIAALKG
As to the kind of experiment: two-hybrid library CCmax. As to conditions: mean of both orientations.

The target of another assay is T32, 4H780-AA.
T32 chain: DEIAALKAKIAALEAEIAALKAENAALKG
As to the kind of experiment: two-hybrid library CCmax. As to conditions: mean of both orientations.

A further assay deals with T33, 4H3112-AA.
T33 chain: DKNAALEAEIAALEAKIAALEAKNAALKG
Put plainly: two-hybrid library CCmax. The conditions noted are these: mean of both orientations.

The next assay has as its target T34, 4H3343-AA.
T34 chain: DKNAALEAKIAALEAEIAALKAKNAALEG
Put plainly: two-hybrid library CCmax. As to conditions: mean of both orientations.

For the next assay, the target named is T35, 4H741-bH.
T35 chain: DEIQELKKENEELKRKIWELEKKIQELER
Put plainly: two-hybrid library CCNG1.

The next assay addresses T36, 4H477-bH.
T36 chain: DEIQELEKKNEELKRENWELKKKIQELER
As to the kind of experiment: two-hybrid library CCNG1.

A further assay has as its target T37, 4H492-bH.
T37 chain: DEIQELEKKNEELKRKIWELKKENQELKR
Put plainly: two-hybrid library CCNG1.

The next assay concerns the target T38, 4H949-bH.
T38 chain: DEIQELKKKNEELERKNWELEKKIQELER
Put plainly: two-hybrid library CCNG1.

A further assay deals with T39, 4H796-bH.
T39 chain: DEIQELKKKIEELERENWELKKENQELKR
Put plainly: two-hybrid library CCNG1.

The target of another assay is T40, 4H56-bH.
T40 chain: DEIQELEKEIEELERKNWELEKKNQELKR
Put plainly: two-hybrid library CCNG1.

In the next assay the target is T41, 4H932-bH.
T41 chain: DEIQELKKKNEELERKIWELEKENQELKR
As to the kind of experiment: two-hybrid library CCNG1.

The next assay deals with T42, 4H730-bH.
T42 chain: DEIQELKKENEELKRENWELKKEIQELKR
As to the kind of experiment: two-hybrid library CCNG1.

The next assay addresses T43, 4H850-bH.
T43 chain: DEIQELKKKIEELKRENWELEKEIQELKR
As to the kind of experiment: two-hybrid library CCNG1.

The target in another assay is T44, 4H906-bH.
T44 chain: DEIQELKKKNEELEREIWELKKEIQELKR
As to the kind of experiment: two-hybrid library CCNG1.

The next assay has as its target T45, 4H619-bH.
T45 chain: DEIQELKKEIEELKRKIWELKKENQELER
As to the kind of experiment: two-hybrid library CCNG1.

As for DKIAALEAKIAALKAENAALKAEIAALEG [4H2393-AA], the interaction score in the assay with 4H2837-AA is 1.73; with 4H2617-AA it was 1.93; in the assay with 4H566-AA it was 1.33; in the assay with 4H881-AA, -1; with 4H678-AA it was -0.574; with 4H3606-AA, 2.32. In addition, the interaction score with 4H2729-AA was -0.695; with 4H3921-AA, -1.77; with 4H2754-AA, -1.23; with 4H717-AA, -1.55; with 4H429-AA it was -1.55; in the assay with 4H3627-AA, -1.42. Also, the interaction score with 4H317-AA is 1.92; with 4H48-AA, -0.193; in the assay with 4H2944-AA, -0.902; with 4H993-AA, -1.5; with 4H3655-AA, -1.41; with 4H2883-AA it was -1.21. In addition, the interaction score is 1.51 with 4H2949-AA; 1.82 in the assay with 4H2642-AA; 1.55 with 4H3844-AA; -1.59 in the assay with 4H2505-AA; -1.45 with 4H3427-AA; 0.221 with 4H2466-AA. The interaction score in the assay with 4H794-AA is 1.33; in the assay with 4H605-AA, 0.852; with 4H454-AA, -0.951; in the assay with 4H335-AA, -1.56; in the assay with 4H2575-AA, -1.03; in the assay with 4H342-AA it was 2.37. For the same molecule, the interaction score with 4H906-AA was -1.04; with 4H780-AA it was -1.42; with 4H3112-AA, -1.21; with 4H3343-AA it was -1.29.

In the case of DEIQELEKKNEELKRENWELKKKIQELER [4H477-bH], the interaction score was -0.234 with 4H741-bH, 0.526 with 4H477-bH and -1.31 with 4H492-bH.

In the case of DEIQELEKEIEELERKNWELEKKNQELKR [4H56-bH], the interaction score is -1.15 with 4H949-bH; 0.682 in the assay with 4H796-bH; -0.661 with 4H56-bH; -0.0294 in the assay with 4H932-bH; -0.307 with 4H730-bH.

On to DEIQELKKEIEELKRKIWELKKENQELER [4H619-bH], for which the interaction score with 4H850-bH was 0.196; in the assay with 4H906-bH, -0.349; with 4H619-bH it was 0.749.
